This is an account of results in article PMC10980823, “Structural basis of Acinetobacter type IV pili targeting by an RNA virus” (Nature Communications, 2024).

“And” between values parts separate entries of the source, which are not always exact repeats. Identical values can stand only once.

The labels stand for the following.
B1: AP205 mature virion (complex)
chain 1: MNMYKWVPESIRDSGEGQPSYSNNGDYAPSGPWVAAGIHTMPQSLRDSMRNSIMVTAQARRDVIGPEWGPDGRFTGYASVIGTPDPKPADIVNKFTVERRPVSNGNFQQRVKAGDIVVAPYTSDGKITVKLVAGQKDISSTPDYDYRIDSSLASSAGFVVAGERWYYTKRHFIIPRYFQNWRMRRRKYVTGWVMPTFYSPKEIFNRLKDSLVPDTGLVTQVWADNNTKRMDFLTAMAEIPQTLSSFLDALGYLGSLIKDFKRRRFFLNKAHQRIRNKLGVSFAERRSQIVSKYDRKIASARKPAIIVKLRQRKEKALKALDKMRVREEKKMIREFATQAASLWLSFRYEIMPLYYQSQDVLDVIANSTSEFMTSRDFVAKAINIGIPLEWNLDQENLVSQPRHNVMVKSKLSPENNIGKTLSVNPFTTAWELLTLSFVVDWFVNFGDVIAGFTGGYSDDSGATASWRFDDKKVFHLKNIPSAMVIVDINFYTRQVIDPRLCGGLAFSPKLNLFRYLDAMSLSWNRSRLKISRAT
chain 2: ANKPMQPITSTANKIVWSDPTRLSTTFSASLLRQRVKVGIAELNNVSGQYVSVYKRPAPKPEGCADACVIMPNENQSIRTVISGSAENLATLKAEWETHKRNVDTLFASGNAGLGFLDPTAAIVSSDTT
B2: AP205 coat protein (Coat) (natural protein)
chain: B1 chain 2
notes: coat protein (Coat) of Acinetobacter phage AP205; native protein of the capsid shell; also forms T=3 and T=4 icosahedral particles; also called Coat-dimer; Coat shell; source: in AP205 virions and VLPs grown on A. gp16, purified (CsCl gradient)
B3: AP205 maturation protein (Mat) (natural protein, Acinetobacter phage AP205)
chain: B1 chain 1
notes: maturation protein (Mat) of Acinetobacter phage AP205, 534 amino acids as printed; native protein in the virion, where two copies (inner and outer Mat) form a dimer; Native virion protein; models of both copies are in PDB 8TOC; also called inner Mat; outer Mat; source: in AP205 virions grown on A. gp16, purified (CsCl gradient)

The target in data set [1] is Acinetobacter genomosp. 16 type IV pilus (T4P) mature pilin (Acinetobacter genomosp. 16 (endogenous)). Briefly: cryo-EM structure; purified AP205 and purified T4P mixed at 1:1 volume ratio at 30 C for 30 min; AP205 with two T4P at 3.6 A, with one T4P at 4.2 A; local maps of inner Mat-T4P at 8.2 A and outer Mat-T4P at 8.6 A.
Data set [2] concerns the molecule itself. Briefly: cryo-EM structure; single-particle cryo-EM of purified apo AP205; asymmetric reconstruction of the mature virion at 3.1 A; icosahedral T=3 (3.2 A) and T=4 (3.4 A) particles from the same data.
The target in data set [3] is B3. The description is as above. The settings on record: both partners purified.

On to B1, for which the stoichiometry N in data set [1] was 2 and 1.

Consider B2, for which the “stoichiometry N” value in data set [2] worked out at 178. The binding result in data set [3] is recorded as “binds”.

B3: in data set [2], the “stoichiometry N” value turned out to be 2.

What is called stoichiometry N is a count of units in the complex or per binding partner.
